Like-named read-outs stand apart in the source and are kept apart here.
How the values were obtained:
[1] = molecular target: SpAQ9,10K/G29F/D36,37A (Staphylococcus aureus) (UniProt P02976); assay: ELISA, OD 450 against log10(1/dilution of 3F6), initial 0.05 mg/mL
[2] = molecular target: SpAKKAA (Staphylococcus aureus); assay: as above
[3] = molecular target: Fcγ fragment of human IgG (human); assay: BLI, test article on Ni-NTA sensor, Fc fragment of human IgG in solution
[4] = molecular target: F(ab)2 fragment of human IgG; assay: SPR, test article on chip, F(ab)2 fragment of human IgG in flow
human IgE = assay: method and unit not told (binding affinity of the variants to human IgE)
human IgG [5] = assay: SPR, test article on chip, human IgG in flow
human IgG [6] = assay: method and unit not given (binding affinity of the variants to human IgG)
[7] = molecular target: SpAQ9,10K/S33T (Staphylococcus aureus); assay: ELISA, association constant calculated with GraphPad Prism; head of the table: KA (x 10^10) M^-1
[8] = molecular target: SpAKKAA (Staphylococcus aureus); assay: as above
[9] = molecular target: SpAQ9,10K/S33E (Staphylococcus aureus); assay: as above
[10] = molecular target: SpAKKAA (Staphylococcus aureus); assay: ELISA, plates coated with SpAKKAA, serial dilution of hMAb 3F6
[11] = molecular target: SpAQ9,10K/S33T (Staphylococcus aureus)
[12] = molecular target: SpAQ9,10K/S33E (Staphylococcus aureus)
[13] = molecular target: SpAKKAA (Staphylococcus aureus); assay: ELISA, plates coated with SpAKKAA, serial dilution of rMAb 3F6
[14] = molecular target: SpAQ9,10K/S33T (Staphylococcus aureus); assay: ELISA, plate coated with antigen, serial dilutions of rMAb 3F6
[15] = molecular target: SpAKKAA (Staphylococcus aureus); assay: as above
[16] = molecular target: SpAQ9,10K/S33E (Staphylococcus aureus); assay: as above
[17] = molecular target: SpAQ9,10K/S33T (Staphylococcus aureus); remark: listed apart in the source
[18] = molecular target: SpAQ9,10K/S33E (Staphylococcus aureus); remark: listed apart in the source

| Substance | Ka (human IgG [5]) [M⁻¹] | further results |
| --- | --- | --- |
| 3F6 (antibody) |  | EC50 (read off the curve) [1]: 6 ng/mL; EC50 (read off the curve) [2]: 6 ng/mL |
| SpAKKAA (from UniProt A0A0H3K686 37-327) | 502000 | Ka [3]: 32.9 M⁻¹; Ka [4]: 82700 M⁻¹; human IgE affinity (human IgE): 6.57e-08; human IgG affinity (human IgG [6]): 6.6e-05 |
| SpAQ9,10K/G29A (from UniProt A0A0H3K686 37-327) | 1.13e+06 |  |
| SpAQ9,10K/G29A/D36,37A (from UniProt A0A0H3K686 37-327) | 178000 | human IgE affinity (human IgE): 3.43e-06; human IgG affinity (human IgG [6]): 0.000143 |
| SpAQ9,10K/G29C (from UniProt A0A0H3K686 37-327) | 174000 |  |
| SpAQ9,10K/G29D (from UniProt A0A0H3K686 37-327) | 548000 |  |
| SpAQ9,10K/G29E (from UniProt A0A0H3K686 37-327) | 318000 |  |
| SpAQ9,10K/G29F (from UniProt A0A0H3K686 37-327) | 346000 |  |
| SpAQ9,10K/G29F/D36,37A (from UniProt P02976 37-327) | 372000 | human IgE affinity (human IgE): 2.02e-05; human IgG affinity (human IgG [6]): 0.0124 |
| SpAQ9,10K/G29H (from UniProt A0A0H3K686 37-327) | 144000 |  |
| SpAQ9,10K/G29I (from UniProt A0A0H3K686 37-327) | 1.01e+06 |  |
| SpAQ9,10K/G29K (from UniProt A0A0H3K686 37-327) | 974000 |  |
| SpAQ9,10K/G29L (from UniProt A0A0H3K686 37-327) | 315000 |  |
| SpAQ9,10K/G29M (from UniProt A0A0H3K686 37-327) | 389000 |  |
| SpAQ9,10K/G29N (from UniProt A0A0H3K686 37-327) | 623000 |  |
| SpAQ9,10K/G29P (from UniProt A0A0H3K686 37-327) | 340000 |  |
| SpAQ9,10K/G29Q (from UniProt A0A0H3K686 37-327) | 206000 |  |
| SpAQ9,10K/G29R (from UniProt A0A0H3K686 37-327) | 606000 |  |
| SpAQ9,10K/G29R/D36,37A (from UniProt A0A0H3K686 37-327) | 681000 |  |
| SpAQ9,10K/G29S (from UniProt A0A0H3K686 37-327) | 940000 |  |
| SpAQ9,10K/G29T (from UniProt A0A0H3K686 37-327) | 198000 |  |
| SpAQ9,10K/G29V (from UniProt A0A0H3K686 37-327) | 435000 |  |

| Substance | Ka (human IgG [5]) [M⁻¹] | further results |
| --- | --- | --- |
| SpAQ9,10K/G29W (from UniProt A0A0H3K686 37-327) | 451000 |  |
| SpAQ9,10K/G29Y (from UniProt A0A0H3K686 37-327) | 837000 |  |
| SpAQ9,10K/S33A/D36,37A (from UniProt A0A0H3K686 37-327) | 1.88e+06 |  |
| SpAQ9,10K/S33C (from UniProt P02976 37-327) | 458000 |  |
| SpAQ9,10K/S33D (from UniProt P02976 37-327) | 382000 |  |
| SpAQ9,10K/S33E (from UniProt A0A0H3K686 37-327) | 49600 | Ka [3]: 32.7 M⁻¹; Ka [4]: 41.2 M⁻¹ |
| SpAQ9,10K/S33E/D36,37A (from UniProt P02976 37-327) | 56800 |  |
| SpAQ9,10K/S33E/D36,37A/G29A (from UniProt P02976 37-327) | 189000 |  |
| SpAQ9,10K/S33E/D36,37A/G29F (from UniProt P02976 37-327) | 1.48e+06 |  |
| SpAQ9,10K/S33E/D36,37A/G29R (from UniProt P02976 37-327) | 1.02e+06 |  |
| SpAQ9,10K/S33E/G29A (from UniProt P02976 37-327) | 126000 |  |
| SpAQ9,10K/S33E/G29F (from UniProt P02976 37-327) | 158000 |  |
| SpAQ9,10K/S33E/G29R (from UniProt P02976 37-327) | 484000 |  |
| SpAQ9,10K/S33F/D36,37A (from UniProt A0A0H3K686 37-327) | 363000 |  |
| SpAQ9,10K/S33F/D36,37A/G29R | 906000 |  |
| SpAQ9,10K/S33F/G29A (from UniProt A0A0H3K686 37-327) | 119000 |  |
| SpAQ9,10K/S33F/G29F (from UniProt A0A0H3K686 37-327) | 244000 |  |
| SpAQ9,10K/S33F/G29R (from UniProt A0A0H3K686 37-327) | 190000 |  |
| SpAQ9,10K/S33G (from UniProt P02976 37-327) | 1.12e+06 |  |
| SpAQ9,10K/S33H (from UniProt A0A0H3K686 37-327) | 278000 |  |
| SpAQ9,10K/S33I (from UniProt A0A0H3K686 37-327) | 184000 |  |
| SpAQ9,10K/S33K (from UniProt P02976 37-327) | 512000 |  |

| Substance | Ka (human IgG [5]) [M⁻¹] | further results |
| --- | --- | --- |
| SpAQ9,10K/S33K/D36,37A (from UniProt A0A0H3K686 37-327) | 805000 |  |
| SpAQ9,10K/S33L (from UniProt A0A0H3K686 37-327) | 205000 |  |
| SpAQ9,10K/S33M (from UniProt A0A0H3K686 37-327) | 318000 |  |
| SpAQ9,10K/S33N (from UniProt A0A0H3K686 37-327) | 307000 |  |
| SpAQ9,10K/S33P (from UniProt P02976 37-327) | 422000 |  |
| SpAQ9,10K/S33Q/D36,37A (from UniProt P02976 37-327) | 393000 |  |
| SpAQ9,10K/S33Q/D36,37A/G29A | 489000 |  |
| SpAQ9,10K/S33Q/D36,37A/G29F | 1.25e+06 |  |
| SpAQ9,10K/S33Q/D36,37A/G29R | 638000 |  |
| SpAQ9,10K/S33Q/G29A (from UniProt A0A0H3K686 37-327) | 256000 |  |
| SpAQ9,10K/S33Q/G29F (from UniProt A0A0H3K686 37-327) | 128000 |  |
| SpAQ9,10K/S33Q/G29R (from UniProt A0A0H3K686 37-327) | 233000 |  |
| SpAQ9,10K/S33R (from UniProt A0A0H3K686 37-327) | 346000 |  |
| SpAQ9,10K/S33T (from UniProt A0A0H3K686 37-327) | 38600 | Ka [3]: 39.9 M⁻¹; Ka [4]: 43.5 M⁻¹ |
| SpAQ9,10K/S33V (from UniProt A0A0H3K686 37-327) | 247000 |  |
| SpAQ9,10K/S33W (from UniProt A0A0H3K686 37-327) | 236000 |  |
| SpAQ9,10K/S33Y (from UniProt A0A0H3K686 37-327) | 157000 |  |
| hMAb 3F6 (antibody) |  | Ka [7]: 7.96e+10 M⁻¹; Ka [8]: 4.99e+10 M⁻¹; Ka [9]: 9.82e+10 M⁻¹; EC50 (read off the curve) [10]: 0.4 nM; EC50 (read off the curve) [11]: 0.3 nM; EC50 (read off the curve) [12]: 0.3 nM |
| recombinant monoclonal antibody rMAb 3F6 |  | EC50 (read off the curve) [13]: 0.07 nM; Ka [14]: 1.34e+10 M⁻¹; Ka [15]: 1.51e+10 M⁻¹; Ka [16]: 1.42e+10 M⁻¹; EC50 (read off the curve) [17]: 0.07 nM; EC50 (read off the curve) [18]: 0.07 nM |
| wild-type SpA (five immunoglobulin-binding domains of staphylococcal protein A) (from UniProt P02976 37-327) |  | Ka [3]: 5.17e+07 M⁻¹ |

Reference: patent US20220362368A1
